The source of these data is US20140328851A1.

For assay [1], the target named is High-density lipoprotein (HDL) particles (human) (UniProt P02647). The assay is described as follows: cell-based or functional assay.
Assay [2] deals with Low-density lipoprotein (LDL) particles (human) (UniProt P04114). The assay is described as follows: negative-staining EM, HDL•CETP•LDL ternary complexes.
Assay [3] shares this target. The assay is described as follows: negative-staining EM, count of LDL•CETP complexes without antibody.

B1: Recombinant human CETP (cholesteryl ester transfer protein) (protein)
chain: CSKGTSHEAGIVCRITKPALLVLNHETAKVIQTAFQRASYPDITGEKAMMLLGQVKYGLHNIQISHLSIASSQVELVEAKSIDVSIQNVSVVFKGTLKYGYTTAWWLGIDQSIDFEIDSAIDLQINTQLTCDSGRVRTDAPDCYLSFHKLLLHLQGEREPGWIKQLFTNFISFTLKLVLKGQICKEINVISNIMADFVQTRAASILSDGDIGVDISLTGDPVITASYLESHHKGHFIYKNVSEDLPLPTFSPTLLGDSRMLYFWFSERVFHSLAKVAFQDGRLMLSLMGDEFKAVLETWGFNTNQEIFQEVVGGFPSQAQVTVHCLKMPKISCQNKGVVVNSSVMVKFLFPRPDQQHSVAYTFEEDIVTTVQASYSKKKLFLSLLDFQITPKTVSNLTESSSESVQSFLQSMITAVGIPEVMSRLEVVFTALMNSKGVSLFDIINPEIITRDGFLLLQMDFGFPEHLLVDFLQSLS
B1: in assay [1], the decrease of mean HDL particle size after 4 hours (NS-EM), HDL/CETP/LDL co-incubation without antibody worked out at 25.8%. For the same molecule, the percent of LDL particles connected to HDL particles by a CETP bridge in assay [2] came to 25%. In assay [3], this molecule yielded a percentage of binary complexes (LDL•CETP) without H300 of 38%.
